Reference: paper PMC3922351 (2007)

Legend:
FGFR1 (Homo sapiens) [1] = target: FGFR1 (Homo sapiens) (UniProt P11362); test: surface plasmon resonance; conditions: cited from earlier work
FGFR1 (Homo sapiens) [2] = target: FGFR1 (Homo sapiens) (UniProt P11362); test: surface plasmon resonance; conditions: cited from earlier work; remark: listed apart in the source
FGF2 (Homo sapiens) [3] = target: FGF2 (Homo sapiens) (UniProt P09038); test: SPR; conditions: cited from earlier work
FGF2 (Homo sapiens) [4] = target: FGF2 (Homo sapiens) (UniProt P09038); test: SPR; conditions: cited from earlier work; remark: listed apart in the source
[5] = target: low density lipoprotein receptor-related protein (LRP) (UniProt Q07954)
low density lipoprotein receptor-related protein (LRP), sequence (Q07954 20-4544): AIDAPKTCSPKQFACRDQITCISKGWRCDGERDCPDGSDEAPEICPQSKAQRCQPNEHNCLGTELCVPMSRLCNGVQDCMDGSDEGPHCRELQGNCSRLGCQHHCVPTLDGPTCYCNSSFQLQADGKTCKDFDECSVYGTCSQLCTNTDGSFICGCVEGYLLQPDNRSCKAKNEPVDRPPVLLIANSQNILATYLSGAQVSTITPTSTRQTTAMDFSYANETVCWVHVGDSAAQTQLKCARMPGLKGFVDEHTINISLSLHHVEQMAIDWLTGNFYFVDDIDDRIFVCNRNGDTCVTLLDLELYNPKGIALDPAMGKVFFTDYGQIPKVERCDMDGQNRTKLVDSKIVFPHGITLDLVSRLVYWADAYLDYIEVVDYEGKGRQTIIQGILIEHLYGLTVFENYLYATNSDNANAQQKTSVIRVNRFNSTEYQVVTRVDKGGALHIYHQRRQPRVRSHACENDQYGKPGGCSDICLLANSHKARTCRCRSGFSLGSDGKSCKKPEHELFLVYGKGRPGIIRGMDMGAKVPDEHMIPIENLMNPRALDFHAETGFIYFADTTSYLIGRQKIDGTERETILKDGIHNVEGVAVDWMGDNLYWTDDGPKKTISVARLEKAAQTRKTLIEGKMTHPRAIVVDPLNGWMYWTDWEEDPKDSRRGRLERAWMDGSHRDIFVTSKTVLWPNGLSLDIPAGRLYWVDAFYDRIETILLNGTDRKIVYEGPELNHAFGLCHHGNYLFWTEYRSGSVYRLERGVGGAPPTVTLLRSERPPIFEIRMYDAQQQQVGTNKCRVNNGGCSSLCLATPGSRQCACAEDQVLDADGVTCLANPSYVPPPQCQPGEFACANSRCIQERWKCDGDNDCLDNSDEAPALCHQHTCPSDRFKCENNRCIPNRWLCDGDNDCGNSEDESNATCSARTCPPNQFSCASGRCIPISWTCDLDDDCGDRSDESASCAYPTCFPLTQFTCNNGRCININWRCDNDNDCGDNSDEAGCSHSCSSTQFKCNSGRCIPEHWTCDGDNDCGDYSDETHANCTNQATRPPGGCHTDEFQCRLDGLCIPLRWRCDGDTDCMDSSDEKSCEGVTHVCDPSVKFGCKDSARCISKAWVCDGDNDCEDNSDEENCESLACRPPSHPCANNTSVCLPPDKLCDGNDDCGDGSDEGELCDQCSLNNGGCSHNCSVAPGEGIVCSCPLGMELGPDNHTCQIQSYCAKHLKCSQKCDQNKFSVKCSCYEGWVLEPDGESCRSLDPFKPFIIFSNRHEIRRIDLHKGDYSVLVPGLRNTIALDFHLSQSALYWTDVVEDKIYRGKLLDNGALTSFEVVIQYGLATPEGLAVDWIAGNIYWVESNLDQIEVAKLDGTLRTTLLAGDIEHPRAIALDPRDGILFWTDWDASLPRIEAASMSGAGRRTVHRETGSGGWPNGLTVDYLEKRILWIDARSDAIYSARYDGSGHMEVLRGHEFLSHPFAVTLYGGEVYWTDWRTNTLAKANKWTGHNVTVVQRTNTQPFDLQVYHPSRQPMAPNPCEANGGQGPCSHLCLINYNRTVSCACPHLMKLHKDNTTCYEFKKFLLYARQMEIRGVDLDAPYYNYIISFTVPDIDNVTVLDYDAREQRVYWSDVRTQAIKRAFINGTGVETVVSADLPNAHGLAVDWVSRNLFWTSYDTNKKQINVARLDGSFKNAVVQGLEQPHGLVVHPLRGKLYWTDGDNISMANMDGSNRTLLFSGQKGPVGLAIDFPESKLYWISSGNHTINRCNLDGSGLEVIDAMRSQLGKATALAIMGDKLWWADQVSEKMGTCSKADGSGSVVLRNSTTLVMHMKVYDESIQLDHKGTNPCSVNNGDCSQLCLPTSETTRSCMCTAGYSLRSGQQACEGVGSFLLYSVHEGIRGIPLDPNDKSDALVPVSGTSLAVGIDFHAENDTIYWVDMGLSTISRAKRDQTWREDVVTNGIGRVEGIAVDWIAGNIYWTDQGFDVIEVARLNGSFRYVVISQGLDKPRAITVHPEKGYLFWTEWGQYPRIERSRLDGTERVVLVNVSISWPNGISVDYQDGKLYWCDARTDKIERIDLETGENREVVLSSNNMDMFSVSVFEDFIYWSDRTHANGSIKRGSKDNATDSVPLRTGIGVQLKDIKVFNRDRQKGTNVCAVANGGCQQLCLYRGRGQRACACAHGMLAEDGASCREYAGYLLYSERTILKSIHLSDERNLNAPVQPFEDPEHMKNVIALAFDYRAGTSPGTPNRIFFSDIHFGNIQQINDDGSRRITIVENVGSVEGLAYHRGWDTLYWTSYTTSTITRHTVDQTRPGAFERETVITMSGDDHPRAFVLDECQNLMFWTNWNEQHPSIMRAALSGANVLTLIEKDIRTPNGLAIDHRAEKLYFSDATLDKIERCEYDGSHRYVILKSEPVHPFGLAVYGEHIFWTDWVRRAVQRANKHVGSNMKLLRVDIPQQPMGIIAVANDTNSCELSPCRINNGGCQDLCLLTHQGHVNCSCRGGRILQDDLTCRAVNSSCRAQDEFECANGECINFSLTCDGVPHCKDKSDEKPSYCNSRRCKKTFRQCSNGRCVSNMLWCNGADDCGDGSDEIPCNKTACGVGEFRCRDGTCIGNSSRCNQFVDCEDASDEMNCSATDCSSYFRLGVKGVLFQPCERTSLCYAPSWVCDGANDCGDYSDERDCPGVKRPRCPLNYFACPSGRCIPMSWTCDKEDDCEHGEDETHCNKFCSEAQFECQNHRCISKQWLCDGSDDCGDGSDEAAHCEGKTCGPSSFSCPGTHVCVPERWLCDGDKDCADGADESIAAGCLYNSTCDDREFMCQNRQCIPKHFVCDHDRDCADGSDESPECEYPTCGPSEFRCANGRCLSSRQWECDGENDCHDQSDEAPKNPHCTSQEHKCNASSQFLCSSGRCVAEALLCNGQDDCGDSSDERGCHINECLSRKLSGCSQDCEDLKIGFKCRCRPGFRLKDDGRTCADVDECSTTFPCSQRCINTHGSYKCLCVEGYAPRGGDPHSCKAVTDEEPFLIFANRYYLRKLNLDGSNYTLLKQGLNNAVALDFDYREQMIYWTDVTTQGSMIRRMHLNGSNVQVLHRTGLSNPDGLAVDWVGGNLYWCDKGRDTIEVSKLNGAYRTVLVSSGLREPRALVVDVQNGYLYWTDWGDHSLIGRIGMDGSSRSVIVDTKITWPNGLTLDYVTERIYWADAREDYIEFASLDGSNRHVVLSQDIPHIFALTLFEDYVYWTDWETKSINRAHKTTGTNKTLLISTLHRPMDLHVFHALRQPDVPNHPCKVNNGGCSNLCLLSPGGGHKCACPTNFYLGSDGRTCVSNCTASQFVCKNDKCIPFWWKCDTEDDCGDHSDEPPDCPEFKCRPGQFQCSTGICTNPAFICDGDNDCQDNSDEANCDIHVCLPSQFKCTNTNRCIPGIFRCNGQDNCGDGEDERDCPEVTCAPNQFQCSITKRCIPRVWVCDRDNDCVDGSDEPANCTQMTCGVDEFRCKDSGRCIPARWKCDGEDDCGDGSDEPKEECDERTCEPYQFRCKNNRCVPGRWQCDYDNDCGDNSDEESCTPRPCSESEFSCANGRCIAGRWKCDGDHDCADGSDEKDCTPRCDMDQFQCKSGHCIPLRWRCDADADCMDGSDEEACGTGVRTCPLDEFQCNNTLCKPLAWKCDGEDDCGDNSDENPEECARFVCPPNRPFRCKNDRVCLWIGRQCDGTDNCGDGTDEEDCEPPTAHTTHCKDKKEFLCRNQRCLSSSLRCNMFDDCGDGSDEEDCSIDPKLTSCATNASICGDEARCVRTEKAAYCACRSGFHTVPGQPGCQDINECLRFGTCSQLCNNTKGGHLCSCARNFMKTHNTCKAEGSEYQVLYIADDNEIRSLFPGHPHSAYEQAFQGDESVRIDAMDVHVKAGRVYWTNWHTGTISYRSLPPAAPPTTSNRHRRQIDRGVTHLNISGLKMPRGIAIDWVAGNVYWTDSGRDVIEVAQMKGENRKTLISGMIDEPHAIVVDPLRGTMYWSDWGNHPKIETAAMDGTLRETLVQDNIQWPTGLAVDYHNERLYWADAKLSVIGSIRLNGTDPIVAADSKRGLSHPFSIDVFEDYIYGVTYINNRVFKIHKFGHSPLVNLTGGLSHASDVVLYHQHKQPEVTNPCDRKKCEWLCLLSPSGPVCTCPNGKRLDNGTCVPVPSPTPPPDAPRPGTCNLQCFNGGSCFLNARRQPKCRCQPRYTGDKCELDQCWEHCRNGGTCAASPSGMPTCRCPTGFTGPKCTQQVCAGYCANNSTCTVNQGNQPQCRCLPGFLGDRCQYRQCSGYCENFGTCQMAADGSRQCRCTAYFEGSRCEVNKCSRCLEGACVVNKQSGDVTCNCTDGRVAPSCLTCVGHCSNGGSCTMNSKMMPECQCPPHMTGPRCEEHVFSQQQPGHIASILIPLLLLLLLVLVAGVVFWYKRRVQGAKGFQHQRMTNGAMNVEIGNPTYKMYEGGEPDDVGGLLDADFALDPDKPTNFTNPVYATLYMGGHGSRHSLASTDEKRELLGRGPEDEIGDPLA

FGF2 (Homo sapiens), sequence (P09038 143-288): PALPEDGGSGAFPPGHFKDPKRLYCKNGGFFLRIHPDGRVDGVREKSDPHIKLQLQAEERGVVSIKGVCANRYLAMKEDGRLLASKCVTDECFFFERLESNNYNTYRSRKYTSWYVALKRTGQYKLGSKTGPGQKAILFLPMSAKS

FGF2 (from UniProt P09038)
Kd (FGFR1 (Homo sapiens) [1]): 2.7 nM
Kd (FGFR1 (Homo sapiens) [2]): 62 nM

FGFR1 (from UniProt P11362)
Kd (FGF2 (Homo sapiens) [3]): 2.7 nM
Kd (FGF2 (Homo sapiens) [4]): 62 nM

B1: pro-heparanase-1 (protein)
chain: QDVVDLDFFTQEPLHLVSPSFLSVTIDANLATDPRFLILLGSPKLRTLARGLSPAYLRFGGTKTDFLIFDPKKESTFEERSYWQSQVNQDICKYGSIPPDVEEKLRLEWPYQEQLLLREHYQKKFKNSTYSRSSVDVLYTFANCSGLDLIFGLNALLRTADLQWNSSNAQLLLDYCSSKGYNISWELGNEPNSFLKKADIFINGSQLGEDFIQLHKLLRKSTFKNAKLYGPDVGQPRRKTAKMLKSFLKAGGEVIDSVTWHHYYLNGRTATKEDFLNPDVLDIFISSVQKVFQVVESTRPGKKVWLGETSSAYGGGAPLLSDTFAAGFMWLDKLGLSARMGIEVVMRQVFFGAGNYHLVDENFDPLPDYWLSLLFKKLVGTKVLMASVQGSKRRKLRVYLHCTNTDNPRYKEGDLTLYAINLHNVTKYLRLPYPFSNKQVDKYLLRPLGPHGLLSKSVQLNGLTLKMVDDQTLPPLMEKPLRPGSSLGLPAFSYSFFVIRNAKVAACI
Kd [5]: ~1.06 nM

B2: pro-heparanase-1 (protein)
chain: QDVVDLDFFTQEPLHLVSPSFLSVTIDANLATDPRFLILLGSPKLRTLARGLSPAYLRFGGTKTDFLIFDPKKESTFEERSYWQSQVNQDICKYGSIPPDVEEKLRLEWPYQEQLLLREHYQKKFKNSTYSRSSVDVLYTFANCSGLDLIFGLNALLRTADLQWNSSNAQLLLDYCSSKGYNISWELGNEPNSFLKKADIFINGSQLGEDFIQLHKLLRKSTFKNAKLYGPDVGQPRRKTAKMLKSFLKAGGEVIDSVTWHHYYLNGRTATKEDFLNPDVLDIFISSVQKVFQVVESTRPGKKVWLGETSSAYGGGAPLLSDTFAAGFMWLDKLGLSARMGIEVVMRQVFFGAGNYHLVDENFDPLPDYWLSLLFKKLVGTKVLMASVQGSKRRKLRVYLHCTNTDNPRYKEGDLTLYAINLHNVTKYLRLPYPFSNKQVDKYLLRPLGPHGLLSKSVQLNGLTLKMVDDQTLPPLMEKPLRPGSSLGLPAFSYSFFVIRNAKVAACI
modifications: complex of LRP with heparan sulphate proteoglycans (HSPG)
Kd [5]: ~0.05 nM
